# Laboratory results: patent US20110195067A1
# Target: FcγRIII (CD16) (human) (UniProt P08637)
# Assay: cell-based or functional assay
# Sequence of FcγRIII (CD16) (human) (P08637 17-254): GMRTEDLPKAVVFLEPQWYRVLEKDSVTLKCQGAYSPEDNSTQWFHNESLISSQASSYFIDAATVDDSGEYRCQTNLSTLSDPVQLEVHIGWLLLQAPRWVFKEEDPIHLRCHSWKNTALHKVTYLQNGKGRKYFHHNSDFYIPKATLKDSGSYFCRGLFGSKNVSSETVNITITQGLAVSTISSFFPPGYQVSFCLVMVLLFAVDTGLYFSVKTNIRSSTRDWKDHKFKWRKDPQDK
"IFN-γ secretion from PBMC, immobilized 3G8 (10 µg/ml) + IL-2","TNF-α secretion from PBMC, immobilized 3G8 (10 µg/ml) + IL-2","proliferative response of PBMC ([methyl-3H] thymidine), IL-2 and immobilized anti-CD16 mAb","proliferative response of PBMC ([methyl-3H] thymidine), immobilized anti-CD16 mAb alone","IFN-γ secretion from PBMC, aggregated IgG (40 µg/ml) + IL-2","TNF-α secretion from PBMC, aggregated IgG (40 µg/ml) + IL-2","fold induction of PBMC proliferation over IL-2, 125 µg/mL of AIG","proliferative response of PBMC, 125 µg/mL of AIG and IL-2",Substance
9.85 ng/mL,3.32 ng/mL,15500 CPM,592 CPM,–,–,–,–,anti-CD16 mAb 3G8 (Caltag Laboratories) (antibody)
–,–,–,–,13 ng/mL,2.46 ng/mL,16 fold,17400 CPM,heat aggregated IgG
